These results are taken from the Human Domainome abundance scans (Beltran et al. 2025).

B1: Proto-oncogene vav, residues 782 to 842; numbered along this chain, P15498 (parent)
chain: KYFGTAKARYDFCARDRSELSLKEGDIIKILNKKGQQGWWRGEIYGRVGWFPANYVEEDYS

± gives the uncertainty stated by the source.

Variants of B1 are the subject of this series. The experiment in a line: abundance fitness (aPCA) (normalised: wild type 0, dead -1); higher = more abundant; growth selection in yeast, the domain comes from the species named. Particulars: Homo sapiens.
Consider KYFGTAKARYDFCARDRSELSLKEGDIIKILNKKGQQGWWRGEIYGRVGWFPANCVEEDYS [Y55C], for which the abundance fitness turned out to be 0.093 ± 0.11.
As for KYFGTAKARYDFCARDRSELSLKEGDIIKILNKKGQQGWWRGEIYGRVGWFPANDVEEDYS [Y55D], the figure is -0.736 ± 0.19; as for KYFGTAKARYDFCARDRSELSLKEGDIIKILNKKGQQGWWRGEIYGRVGWFPANTVEEDYS [Y55T], -0.206 ± 0.097.
To KYFGTAKARYDFCARDRSELSLKEGDIIKILNKKGQQGWWRGEIYGRVGWFPANKVEEDYS [Y55K] belongs -0.388 ± 0.11.
As for KYFGTAKARYDFCARDRSELSLKEGDIIKILNKKGQQGWWRGEIYGRVGWFPANLVEEDYS [Y55L], the figure is 0.058 ± 0.05; as for KYFGTAKARYDFCARDRSELSLKEGDIIKILNKKGQQGWWRGEIYGRVGWFPANPVEEDYS [Y55P], -0.925 ± 0.37; as for KYFGTAKARYDFCARDRSELSLKEGDIIKILNKKGQQGWWRGEIYGRVGWFPANMVEEDYS [Y55M], -0.012 ± 0.078.
Turning to KYFGTAKARYDFCARDRSELSLKEGDIIKILNKKGQQGWWRGEIYGRVGWFPANWVEEDYS [Y55W], the abundance fitness is -0.198 ± 0.17.
As for KYFGTAKARYDFCARDRSELSLKEGDIIKILNKKGQQGWWRGEIYGRVGWFPANHVEEDYS [Y55H], the figure is -0.226 ± 0.14.
KYFGTAKARYDFCARDRSELSLKEGDIIKILNKKGQQGWWRGEIYGRVGWFPANVVEEDYS [Y55V]: the abundance fitness was -0.074 ± 0.046.
To KYFGTAKARYDFCARDRSELSLKEGDIIKILNKKGQQGWWRGEIYGRVGWFPANFVEEDYS [Y55F] belongs -0.258 ± 0.16; to KYFGTAKARYDFCARDRSELSLKEGDIIKILNKKGQQGWWRGEIYGRVGWFPANQVEEDYS [Y55Q], -0.457 ± 0.14; to KYFGTAKARYDFCARDRSELSLKEGDIIKILNKKGQQGWWRGEIYGRVGWFPANEVEEDYS [Y55E], -0.763 ± 0.23.
To KYFGTAKARYDFCARDRSELSLKEGDIIKILNKKGQQGWWRGEIYGRVGWFPANAVEEDYS [Y55A] belongs 0.053 ± 0.073; to KYFGTAKARYDFCARDRSELSLKEGDIIKILNKKGQQGWWRGEIYGRVGWFPANSVEEDYS [Y55S], -0.206 ± 0.094; to KYFGTAKARYDFCARDRSELSLKEGDIIKILNKKGQQGWWRGEIYGRVGWFPANRVEEDYS [Y55R], -0.135 ± 0.057.
To KYFGTAKARYDFCARDRSELSLKEGDIIKILNKKGQQGWWRGEIYGRVGWFPANGVEEDYS [Y55G] belongs -0.396 ± 0.11.
KYFGTAKARYDFCARDRSELSLKEGDIIKILNKKGQQGWWRGEIYGRVGWFRANYVEEDYS [P52R]: the abundance fitness was -0.89 ± 0.099.
As for KYFGTAKARYDFCARDRSELSLKEGDIIKILNKKGQQGWWRGEIYGRVGWFFANYVEEDYS [P52F], the figure is -0.957 ± 0.43; as for KYFGTAKARYDFCARDRSELSLKEGDIIKILNKKGQQGWWRGEIYGRVGWFWANYVEEDYS [P52W], -0.943 ± 0.18.
To KYFGTAKARYDFCARDRSELSLKEGDIIKILNKKGQQGWWRGEIYGRVGWFYANYVEEDYS [P52Y] belongs -1.01 ± 0.34; to KYFGTAKARYDFCARDRSELSLKEGDIIKILNKKGQQGWWRGEIYGRVGWFVANYVEEDYS [P52V], -0.787 ± 0.15.
To KYFGTAKARYDFCARDRSELSLKEGDIIKILNKKGQQGWWRGEIYGRVGWFMANYVEEDYS [P52M] belongs -0.38 ± 0.19; to KYFGTAKARYDFCARDRSELSLKEGDIIKILNKKGQQGWWRGEIYGRVGWFDANYVEEDYS [P52D], -0.929 ± 0.36; to KYFGTAKARYDFCARDRSELSLKEGDIIKILNKKGQQGWWRGEIYGRVGWFQANYVEEDYS [P52Q], -0.528 ± 0.13.
On to KYFGTAKARYDFCARDRSELSLKEGDIIKILNKKGQQGWWRGEIYGRVGWFNANYVEEDYS [P52N], for which the abundance fitness is -0.761 ± 0.29.
To KYFGTAKARYDFCARDRSELSLKEGDIIKILNKKGQQGWWRGEIYGRVGWFLANYVEEDYS [P52L] belongs -0.89 ± 0.12; to KYFGTAKARYDFCARDRSELSLKEGDIIKILNKKGQQGWWRGEIYGRVGWFTANYVEEDYS [P52T], -0.778 ± 0.17; to KYFGTAKARYDFCARDRSELSLKEGDIIKILNKKGQQGWWRGEIYGRVGWFCANYVEEDYS [P52C], -1.02 ± 0.34.
Regarding KYFGTAKARYDFCARDRSELSLKEGDIIKILNKKGQQGWWRGEIYGRVGWFSANYVEEDYS [P52S], the abundance fitness was -0.95 ± 0.15.
To KYFGTAKARYDFCARDRSELSLKEGDIIKILNKKGQQGWWRGEIYGRVGWFKANYVEEDYS [P52K] belongs -0.498 ± 0.21; to KYFGTAKARYDFCARDRSELSLKEGDIIKILNKKGQQGWWRGEIYGRVGWFAANYVEEDYS [P52A], -0.909 ± 0.22; to KYFGTAKARYDFCARDRSELSLKEGDIIKILNKKGQQGWWRGEIYGRVGWFPASYVEEDYS [N54S], -0.054 ± 0.053.
To KYFGTAKARYDFCARDRSELSLKEGDIIKILNKKGQQGWWRGEIYGRVGWFPAGYVEEDYS [N54G] belongs -0.065 ± 0.062; to KYFGTAKARYDFCARDRSELSLKEGDIIKILNKKGQQGWWRGEIYGRVGWFPAEYVEEDYS [N54E], 0.05 ± 0.086.
To KYFGTAKARYDFCARDRSELSLKEGDIIKILNKKGQQGWWRGEIYGRVGWFPAKYVEEDYS [N54K] belongs -0.092 ± 0.11.
In the case of KYFGTAKARYDFCARDRSELSLKEGDIIKILNKKGQQGWWRGEIYGRVGWFPAQYVEEDYS [N54Q], the abundance fitness was -0.201 ± 0.12.
As for KYFGTAKARYDFCARDRSELSLKEGDIIKILNKKGQQGWWRGEIYGRVGWFPALYVEEDYS [N54L], the figure is -0.219 ± 0.065; as for KYFGTAKARYDFCARDRSELSLKEGDIIKILNKKGQQGWWRGEIYGRVGWFPADYVEEDYS [N54D], 0.064 ± 0.087.
Consider KYFGTAKARYDFCARDRSELSLKEGDIIKILNKKGQQGWWRGEIYGRVGWFPAPYVEEDYS [N54P], for which the abundance fitness was -0.29 ± 0.089.
To KYFGTAKARYDFCARDRSELSLKEGDIIKILNKKGQQGWWRGEIYGRVGWFPAHYVEEDYS [N54H] belongs -0.185 ± 0.15; to KYFGTAKARYDFCARDRSELSLKEGDIIKILNKKGQQGWWRGEIYGRVGWFPAWYVEEDYS [N54W], -0.091 ± 0.096; to KYFGTAKARYDFCARDRSELSLKEGDIIKILNKKGQQGWWRGEIYGRVGWFPACYVEEDYS [N54C], -0.017 ± 0.12.
